Reference: the supplement of paper PMC9112550, “Optimization of the antimicrobial peptide Bac7 by deep mutational scanning” (BMC Biology, 2022)

System: Escherichia coli TOP10
Test: shrunken log2 fold change of peptide-encoding DNA abundance (4.5 h post-induction vs induction); higher = less antimicrobial activity (less host growth inhibition)
Conditions: time post-induction: 4.5 h; library: site-saturation at positions 5, 18, 19, 20
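Also: peptides expressed intracellularly from a pBAD plasmid library in pooled LB shake-flask culture, induced with 0.3% L-arabinose, DNA abundance read by NGS, three biological replicates, DESeq2 with apeglm shrinkage.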

Sequence | shrunken log2 fold change
RRIRLRPPRLPRPRPRPWRDPRP | -0.252
RRIRLRPPRLPRPRPRPWTHPRP | -0.207
RRIRLRPPRLPRPRPRPWTKPRP | -0.139
RRIRLRPPRLPRPRPRPWTPPRP | -0.191
RRIRLRPPRLPRPRPRPWTYPRP | 0.0062
RRIRLRPPRLPRPRPRPWWLPRP | -0.0334
RRIRLRPPRLPRPRPRPYAQPRP | -0.599
RRIRLRPPRLPRPRPRPYCGPRP | -0.0687
RRIRLRPPRLPRPRPRPYEGPRP | 0.0285
RRIRLRPPRLPRPRPRPYETPRP | -0.0853
RRIRLRPPRLPRPRPRPYFSPRP | -0.39
RRIRLRPPRLPRPRPRPYFVPRP | -0.65
RRIRLRPPRLPRPRPRPYGDPRP | -0.0122
RRIRLRPPRLPRPRPRPYGEPRP | -0.0013
RRIRLRPPRLPRPRPRPYGFPRP | 0.00785
RRIRLRPPRLPRPRPRPYGVPRP | -0.107
RRIRLRPPRLPRPRPRPYHMPRP | -0.146
RRIRLRPPRLPRPRPRPYPFPRP | -0.137
RRIRLRPPRLPRPRPRPYPMPRP | 0.00832
RRIRLRPPRLPRPRPRPYPNPRP | -1.27
RRIRLRPPRLPRPRPRPYPSPRP | 0.085
RRIRLRPPRLPRPRPRPYQFPRP | -0.0128
RRIRLRPPRLPRPRPRPYQMPRP | -0.188
RRIRLRPPRLPRPRPRPYRKPRP | -0.262
RRIRLRPPRLPRPRPRPYSQPRP | -0.0787

Sequence | shrunken log2 fold change
RRIRLRPPRLPRPRPRPYTGPRP | -0.125
RRIRLRPPRLPRPRPRPYTTPRP | -0.488
RRIRLRPPRLPRPRPRPYWCPRP | -0.00992
RRIRLRPPRLPRPRPRPYYTPRP | -0.76
RRIRMRPPRLPRPRPRPAALPRP | 0.292
RRIRMRPPRLPRPRPRPADGPRP | 0.19
RRIRMRPPRLPRPRPRPADLPRP | 0.752
RRIRMRPPRLPRPRPRPADYPRP | 0.0259
RRIRMRPPRLPRPRPRPAFRPRP | 0.214
RRIRMRPPRLPRPRPRPAFVPRP | 0.233
RRIRMRPPRLPRPRPRPAFYPRP | -0.0165
RRIRMRPPRLPRPRPRPAGWPRP | 1.37
RRIRMRPPRLPRPRPRPAHQPRP | 0.397
RRIRMRPPRLPRPRPRPAIIPRP | 0.0113
RRIRMRPPRLPRPRPRPAKDPRP | 0.042
RRIRMRPPRLPRPRPRPAKGPRP | 0.271
RRIRMRPPRLPRPRPRPAKIPRP | 0.211
RRIRMRPPRLPRPRPRPALNPRP | 0.759
RRIRMRPPRLPRPRPRPAMHPRP | 2.86
RRIRMRPPRLPRPRPRPAPEPRP | 0.874
RRIRMRPPRLPRPRPRPAPTPRP | 1.13
RRIRMRPPRLPRPRPRPAQAPRP | 0.107
RRIRMRPPRLPRPRPRPAQGPRP | 3.7
RRIRMRPPRLPRPRPRPAQMPRP | -0.0763
RRIRMRPPRLPRPRPRPAQVPRP | -0.0213

Sequence | shrunken log2 fold change
RRIRMRPPRLPRPRPRPARVPRP | 1.28
RRIRMRPPRLPRPRPRPASFPRP | 0.126
RRIRMRPPRLPRPRPRPASPPRP | 0.14
RRIRMRPPRLPRPRPRPATCPRP | 0.398
RRIRMRPPRLPRPRPRPATKPRP | 0.103
RRIRMRPPRLPRPRPRPATLPRP | 0.132
RRIRMRPPRLPRPRPRPATPPRP | 1.24
RRIRMRPPRLPRPRPRPAVYPRP | 0.265
RRIRMRPPRLPRPRPRPAWFPRP | 0.634
RRIRMRPPRLPRPRPRPAYKPRP | 0.0601
RRIRMRPPRLPRPRPRPAYSPRP | -0.166
RRIRMRPPRLPRPRPRPCCNPRP | -0.00151
RRIRMRPPRLPRPRPRPCDHPRP | 0.00316
RRIRMRPPRLPRPRPRPCDWPRP | 0.179
RRIRMRPPRLPRPRPRPCFVPRP | -0.103
RRIRMRPPRLPRPRPRPCGEPRP | 0.967
RRIRMRPPRLPRPRPRPCGMPRP | 0.134
RRIRMRPPRLPRPRPRPCHNPRP | -0.355
RRIRMRPPRLPRPRPRPCIGPRP | 0.0503
RRIRMRPPRLPRPRPRPCIMPRP | -0.533
RRIRMRPPRLPRPRPRPCKFPRP | 0.12
RRIRMRPPRLPRPRPRPCLWPRP | 0.0121
RRIRMRPPRLPRPRPRPCMAPRP | 0.59
RRIRMRPPRLPRPRPRPCPLPRP | -0.0594
RRIRMRPPRLPRPRPRPCQGPRP | -0.168

Sequence | shrunken log2 fold change
RRIRMRPPRLPRPRPRPCRAPRP | 0.496
RRIRMRPPRLPRPRPRPCRFPRP | -0.0352
RRIRMRPPRLPRPRPRPCRTPRP | -0.129
RRIRMRPPRLPRPRPRPCSEPRP | 0.514
RRIRMRPPRLPRPRPRPCVSPRP | -0.0589
RRIRMRPPRLPRPRPRPDAQPRP | 2.65
RRIRMRPPRLPRPRPRPDARPRP | -0.0547
RRIRMRPPRLPRPRPRPDASPRP | 2.43
RRIRMRPPRLPRPRPRPDAYPRP | 0.414
RRIRMRPPRLPRPRPRPDCHPRP | 1.49
RRIRMRPPRLPRPRPRPDCTPRP | 2.27
RRIRMRPPRLPRPRPRPDDHPRP | 0.00288
RRIRMRPPRLPRPRPRPDDQPRP | -0.0167
RRIRMRPPRLPRPRPRPDEHPRP | 2.21
RRIRMRPPRLPRPRPRPDENPRP | 2.68
RRIRMRPPRLPRPRPRPDEYPRP | 1.62
RRIRMRPPRLPRPRPRPDFLPRP | 0.0612
RRIRMRPPRLPRPRPRPDFVPRP | 0.00674
RRIRMRPPRLPRPRPRPDICPRP | -0.01
RRIRMRPPRLPRPRPRPDIQPRP | 0.118
RRIRMRPPRLPRPRPRPDKCPRP | -0.0194
RRIRMRPPRLPRPRPRPDKDPRP | 1.24
RRIRMRPPRLPRPRPRPDKVPRP | 0.359
RRIRMRPPRLPRPRPRPDLCPRP | 0.196
RRIRMRPPRLPRPRPRPDLDPRP | 2.65

Sequence | shrunken log2 fold change
RRIRMRPPRLPRPRPRPDMNPRP | 2.25
RRIRMRPPRLPRPRPRPDMQPRP | 2
RRIRMRPPRLPRPRPRPDNGPRP | -0.0901
RRIRMRPPRLPRPRPRPDNMPRP | 0.0905
RRIRMRPPRLPRPRPRPDNSPRP | -0.071
RRIRMRPPRLPRPRPRPDQSPRP | 0.0283
RRIRMRPPRLPRPRPRPDRCPRP | 0.0778
RRIRMRPPRLPRPRPRPDRNPRP | 1.4
RRIRMRPPRLPRPRPRPDRSPRP | -0.178
RRIRMRPPRLPRPRPRPDSQPRP | 1.35
RRIRMRPPRLPRPRPRPDTKPRP | 0.0742
RRIRMRPPRLPRPRPRPDTQPRP | 0.393
RRIRMRPPRLPRPRPRPDVTPRP | 0.109
RRIRMRPPRLPRPRPRPDWHPRP | -0.136
RRIRMRPPRLPRPRPRPDYIPRP | -0.354
RRIRMRPPRLPRPRPRPDYYPRP | -0.111
RRIRMRPPRLPRPRPRPECNPRP | 0.0477
RRIRMRPPRLPRPRPRPEEQPRP | -0.00184
RRIRMRPPRLPRPRPRPEFHPRP | 0.0755
RRIRMRPPRLPRPRPRPEGPPRP | 0.578
RRIRMRPPRLPRPRPRPEGWPRP | 3.15
RRIRMRPPRLPRPRPRPEHLPRP | 0.417
RRIRMRPPRLPRPRPRPEHMPRP | 0.147
RRIRMRPPRLPRPRPRPEICPRP | 0.00534
RRIRMRPPRLPRPRPRPEIRPRP | -0.0241

Sequence | shrunken log2 fold change
RRIRMRPPRLPRPRPRPEIWPRP | 1.2
RRIRMRPPRLPRPRPRPEKGPRP | -0.0013
RRIRMRPPRLPRPRPRPEKSPRP | 2
RRIRMRPPRLPRPRPRPENKPRP | 1.48
RRIRMRPPRLPRPRPRPEPFPRP | 0.427
RRIRMRPPRLPRPRPRPEPRPRP | 1.5
RRIRMRPPRLPRPRPRPESYPRP | -0.00254
RRIRMRPPRLPRPRPRPETYPRP | 0.451
RRIRMRPPRLPRPRPRPEVRPRP | 0.438
RRIRMRPPRLPRPRPRPEVSPRP | 0.221
RRIRMRPPRLPRPRPRPEWGPRP | 0.437
RRIRMRPPRLPRPRPRPEWIPRP | -0.0024
RRIRMRPPRLPRPRPRPEWNPRP | 0.406
RRIRMRPPRLPRPRPRPFCPPRP | 0.0248
RRIRMRPPRLPRPRPRPFDIPRP | -0.126
RRIRMRPPRLPRPRPRPFDPPRP | 0.0446
RRIRMRPPRLPRPRPRPFFMPRP | -0.121
RRIRMRPPRLPRPRPRPFFNPRP | -0.0839
RRIRMRPPRLPRPRPRPFGTPRP | -0.112
RRIRMRPPRLPRPRPRPFHGPRP | -0.128
RRIRMRPPRLPRPRPRPFHRPRP | -0.114
RRIRMRPPRLPRPRPRPFHVPRP | -0.726
RRIRMRPPRLPRPRPRPFHWPRP | -0.184
RRIRMRPPRLPRPRPRPFIMPRP | -0.158
RRIRMRPPRLPRPRPRPFISPRP | -0.4
